# Paper PMC9482650, “Quantitative fragmentomics allow affinity mapping of interactomes” (Nature Communications, 2022)
# T1: PTPN13_1, Q12923
# T1 sequence (Q12923 1088-1188, limits assumed, looked up): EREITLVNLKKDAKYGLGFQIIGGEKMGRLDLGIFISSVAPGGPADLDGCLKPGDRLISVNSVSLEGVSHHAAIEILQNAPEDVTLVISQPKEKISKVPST
# T2: PDZRN3_1, Q9UPQ7
# T2 sequence (Q9UPQ7 244-349, limits assumed, looked up): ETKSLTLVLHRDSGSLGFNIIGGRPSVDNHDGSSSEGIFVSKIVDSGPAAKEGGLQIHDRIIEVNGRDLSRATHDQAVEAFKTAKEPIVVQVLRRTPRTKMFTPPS
# T3: PARD3B_1, Q8TEW8
# T3 sequence (Q8TEW8 196-299, limits assumed, looked up): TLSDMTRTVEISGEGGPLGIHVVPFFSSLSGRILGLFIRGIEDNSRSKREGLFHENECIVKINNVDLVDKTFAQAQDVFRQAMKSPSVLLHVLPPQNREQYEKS
# T4: GRIP1_2, Q9Y3R0
# T4 sequence (Q9Y3R0 145-248, limits assumed, looked up): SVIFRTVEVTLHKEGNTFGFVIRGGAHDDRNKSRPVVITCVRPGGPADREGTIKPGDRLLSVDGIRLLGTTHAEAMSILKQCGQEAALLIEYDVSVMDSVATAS
# T5: APBA2_1, Q99767
# T5 sequence (Q99767 563-664, limits assumed, looked up): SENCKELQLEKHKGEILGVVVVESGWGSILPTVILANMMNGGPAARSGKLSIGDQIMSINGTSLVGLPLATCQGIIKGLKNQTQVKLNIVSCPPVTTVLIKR
# T6: MPDZ_10, O75970
# T6 sequence (O75970 1624-1722, limits assumed, looked up): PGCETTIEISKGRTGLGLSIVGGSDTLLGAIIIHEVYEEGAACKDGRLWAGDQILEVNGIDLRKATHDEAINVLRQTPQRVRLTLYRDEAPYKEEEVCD
# T7: APBA2_2, Q99767
# T7 sequence (Q99767 654-744, limits assumed, looked up): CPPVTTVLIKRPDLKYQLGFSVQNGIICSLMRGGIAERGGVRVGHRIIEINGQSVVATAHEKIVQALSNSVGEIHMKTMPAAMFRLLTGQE
# T8: SNTG2, Q9NY99
# T8 sequence (Q9NY99 68-166, limits assumed, looked up): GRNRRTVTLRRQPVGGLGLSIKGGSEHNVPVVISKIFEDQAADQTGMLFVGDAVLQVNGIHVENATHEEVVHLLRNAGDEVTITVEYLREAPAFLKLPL
# T9: DFNB31_1, Q9P202
# T9 sequence (Q9P202 135-233, limits assumed, looked up): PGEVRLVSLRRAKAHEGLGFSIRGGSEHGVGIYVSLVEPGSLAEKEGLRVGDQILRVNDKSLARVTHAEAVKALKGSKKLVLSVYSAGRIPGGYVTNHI
# T10: NHERF3_1, Q5T2W1
# T10 sequence (Q5T2W1 4-100, limits assumed, looked up): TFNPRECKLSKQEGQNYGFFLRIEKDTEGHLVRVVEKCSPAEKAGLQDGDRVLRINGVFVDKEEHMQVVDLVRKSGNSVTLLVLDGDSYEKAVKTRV
# T11: TIAM2, Q8IVF5
# T11 sequence (Q8IVF5 885-986, limits assumed, looked up): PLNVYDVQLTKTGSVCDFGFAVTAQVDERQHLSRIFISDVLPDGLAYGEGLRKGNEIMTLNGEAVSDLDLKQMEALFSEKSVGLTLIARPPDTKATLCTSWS
# How the values were obtained:
# Experiment in all cases: holdup assay
# Parameters in all cases: key: below the threshold = too weak to quantify, mostly under pKd 3.1 to 4
# Conditions in all cases: plain residues with an end cap or a label only (N-terminal biotin on a linker: ado-ado)
# GRIP2_6, Q9C0E4 = target: GRIP2_6, Q9C0E4
# GRIP2_6, Q9C0E4, sequence (Q9C0E4 648-740): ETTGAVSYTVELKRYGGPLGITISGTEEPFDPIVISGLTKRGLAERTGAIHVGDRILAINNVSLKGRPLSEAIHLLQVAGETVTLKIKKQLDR
# LNX1_2, Q8TBB1 = target: LNX1_2, Q8TBB1
# LNX1_2, Q8TBB1, sequence (Q8TBB1 371-470): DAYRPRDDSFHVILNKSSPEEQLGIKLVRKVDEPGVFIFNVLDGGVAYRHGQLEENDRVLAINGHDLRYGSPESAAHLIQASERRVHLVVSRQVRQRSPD
# GRIP2_5, Q9C0E4 = target: GRIP2_5, Q9C0E4
# GRIP2_5, Q9C0E4, sequence (Q9C0E4 544-642): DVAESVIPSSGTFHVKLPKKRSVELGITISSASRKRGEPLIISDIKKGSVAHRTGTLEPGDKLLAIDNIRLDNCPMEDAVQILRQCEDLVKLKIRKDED
# PTPN13_1, Q12923 = target: T1, PTPN13_1, Q12923
# PDZRN3_1, Q9UPQ7 = target: T2, PDZRN3_1, Q9UPQ7
# LAP2, Q96RT1 = target: LAP2, Q96RT1
# LAP2, Q96RT1, sequence (Q96RT1 other isoform, or with tags, fused parts or gaps): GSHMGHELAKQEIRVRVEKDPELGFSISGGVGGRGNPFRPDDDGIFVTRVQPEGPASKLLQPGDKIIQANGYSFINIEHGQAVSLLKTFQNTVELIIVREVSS
# GRIP2_4, Q9C0E4 = target: GRIP2_4, Q9C0E4
# GRIP2_4, Q9C0E4, sequence (Q9C0E4 446-548): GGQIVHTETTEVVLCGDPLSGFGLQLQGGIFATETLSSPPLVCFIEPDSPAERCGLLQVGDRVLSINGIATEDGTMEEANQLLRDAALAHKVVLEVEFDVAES
# PARD3B_1, Q8TEW8 = target: T3, PARD3B_1, Q8TEW8
# GRIP1_2, Q9Y3R0 = target: T4, GRIP1_2, Q9Y3R0
# HTRA2, O43464 = target: HTRA2, O43464
# HTRA2, O43464, sequence (O43464 355-458): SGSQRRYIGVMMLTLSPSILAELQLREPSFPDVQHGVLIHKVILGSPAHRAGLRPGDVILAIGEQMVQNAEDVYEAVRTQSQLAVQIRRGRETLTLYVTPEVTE
# Inadl_2, Q8NI35 = target: Inadl_2, Q8NI35
# Inadl_2, Q8NI35, sequence (Q8NI35 238-335): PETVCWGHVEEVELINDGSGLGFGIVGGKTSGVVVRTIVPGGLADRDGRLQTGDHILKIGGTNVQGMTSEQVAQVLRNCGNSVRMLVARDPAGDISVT
# APBA2_1, Q99767 = target: T5, APBA2_1, Q99767
# LNX1_1, Q8TBB1 = target: LNX1_1, Q8TBB1
# LNX1_1, Q8TBB1, sequence (Q8TBB1 261-371): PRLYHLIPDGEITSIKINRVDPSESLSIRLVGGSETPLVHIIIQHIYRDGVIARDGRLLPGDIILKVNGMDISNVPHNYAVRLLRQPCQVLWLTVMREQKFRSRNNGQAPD
# MPDZ_10, O75970 = target: T6, MPDZ_10, O75970
# GORASP1, Q9BQQ3 = target: GORASP1, Q9BQQ3
# GORASP1, Q9BQQ3, sequence (Q9BQQ3 1-208): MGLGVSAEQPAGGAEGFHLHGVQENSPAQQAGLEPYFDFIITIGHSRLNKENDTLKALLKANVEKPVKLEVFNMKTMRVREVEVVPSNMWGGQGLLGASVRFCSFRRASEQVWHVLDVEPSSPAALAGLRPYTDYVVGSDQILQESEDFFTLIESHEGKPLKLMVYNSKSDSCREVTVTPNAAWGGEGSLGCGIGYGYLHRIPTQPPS
# NHERF2_2, Q15599 = target: NHERF2_2, Q15599
# NHERF2_2, Q15599, sequence (Q15599 142-238): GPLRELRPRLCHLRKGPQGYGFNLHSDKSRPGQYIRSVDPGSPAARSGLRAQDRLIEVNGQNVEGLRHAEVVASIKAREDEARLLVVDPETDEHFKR
# DLG4_1, P78352 = target: DLG4_1, P78352
# DLG4_1, P78352, sequence (P78352 62-152): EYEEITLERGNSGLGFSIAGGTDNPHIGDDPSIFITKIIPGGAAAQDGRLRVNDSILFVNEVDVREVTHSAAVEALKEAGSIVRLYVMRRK
# APBA2_2, Q99767 = target: T7, APBA2_2, Q99767
# SNTG2, Q9NY99 = target: T8, SNTG2, Q9NY99
# DFNB31_1, Q9P202 = target: T9, DFNB31_1, Q9P202
# NHERF3_1, Q5T2W1 = target: T10, NHERF3_1, Q5T2W1
# FRMPD3, Q5JV73 = target: FRMPD3, Q5JV73
# FRMPD3, Q5JV73, sequence (Q5JV73 12-100): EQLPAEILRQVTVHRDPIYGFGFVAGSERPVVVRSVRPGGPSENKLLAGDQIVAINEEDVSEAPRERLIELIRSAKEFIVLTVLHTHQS
# PARD3_3, Q8TEW0 = target: PARD3_3, Q8TEW0
# PARD3_3, Q8TEW0, sequence (Q8TEW0 582-685): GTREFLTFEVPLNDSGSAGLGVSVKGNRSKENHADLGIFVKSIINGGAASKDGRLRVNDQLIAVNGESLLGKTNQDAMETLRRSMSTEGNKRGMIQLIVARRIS
# GRIP2_3, Q9C0E4 = target: GRIP2_3, Q9C0E4
# GRIP2_3, Q9C0E4, sequence (Q9C0E4 238-339): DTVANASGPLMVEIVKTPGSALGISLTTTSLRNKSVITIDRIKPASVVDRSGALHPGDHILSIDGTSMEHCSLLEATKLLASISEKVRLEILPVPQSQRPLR
# FRMPD2_3, Q68DX3 = target: FRMPD2_3, Q68DX3
# FRMPD2_3, Q68DX3, sequence (Q68DX3 1073-1166): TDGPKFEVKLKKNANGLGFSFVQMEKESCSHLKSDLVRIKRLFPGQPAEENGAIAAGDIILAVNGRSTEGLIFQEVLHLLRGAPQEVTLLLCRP
# MAGI1_1, Q96QZ7 = target: MAGI1_1, Q96QZ7
# MAGI1_1, Q96QZ7, sequence (Q96QZ7 1-106): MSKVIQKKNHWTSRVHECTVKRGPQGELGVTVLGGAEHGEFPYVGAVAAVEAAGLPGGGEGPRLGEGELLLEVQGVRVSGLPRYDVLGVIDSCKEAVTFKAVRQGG
# TIAM2, Q8IVF5 = target: T11, TIAM2, Q8IVF5
Binder,"pKd (GRIP2_6, Q9C0E4)","pKd (LNX1_2, Q8TBB1)","pKd (GRIP2_5, Q9C0E4)","pKd (PTPN13_1, Q12923)","pKd (PDZRN3_1, Q9UPQ7)","pKd (LAP2, Q96RT1)","pKd (GRIP2_4, Q9C0E4)","pKd (PARD3B_1, Q8TEW8)","pKd (GRIP1_2, Q9Y3R0)","pKd (HTRA2, O43464)","pKd (Inadl_2, Q8NI35)","pKd (APBA2_1, Q99767)","pKd (LNX1_1, Q8TBB1)","pKd (MPDZ_10, O75970)","pKd (GORASP1, Q9BQQ3)","pKd (NHERF2_2, Q15599)","pKd (DLG4_1, P78352)","pKd (APBA2_2, Q99767)","pKd (SNTG2, Q9NY99)","pKd (DFNB31_1, Q9P202)",other results
"DFKHTKSFII [JAM2, P57087]",4.41,below the threshold,below the threshold,3.52,below the threshold,below the threshold,below the threshold,4.95,below the threshold,3.88,below the threshold,below the threshold,below the threshold,below the threshold,5.07,below the threshold,below the threshold,below the threshold,below the threshold,below the threshold,"pKd (NHERF3_1, Q5T2W1): below the threshold; pKd (FRMPD3, Q5JV73): below the threshold; pKd (PARD3_3, Q8TEW0): 4.42; pKd (GRIP2_3, Q9C0E4): below the threshold; pKd (FRMPD2_3, Q68DX3): below the threshold; pKd (MAGI1_1, Q96QZ7): below the threshold; pKd (TIAM2, Q8IVF5): 4.19"
"GNDPDRGTSI [GRID2, O43424]",below the threshold,below the threshold,below the threshold,below the threshold,3.88,below the threshold,below the threshold,below the threshold,below the threshold,below the threshold,below the threshold,below the threshold,3.67,below the threshold,below the threshold,3.66,below the threshold,below the threshold,below the threshold,4.46,"pKd (NHERF3_1, Q5T2W1): 3.64; pKd (FRMPD3, Q5JV73): below the threshold; pKd (PARD3_3, Q8TEW0): below the threshold; pKd (GRIP2_3, Q9C0E4): below the threshold; pKd (FRMPD2_3, Q68DX3): below the threshold; pKd (MAGI1_1, Q96QZ7): below the threshold; pKd (TIAM2, Q8IVF5): 4.09"
"SGDGKTSVWI [GJC1, P36383]",3.55,4.03,below the threshold,below the threshold,below the threshold,3.81,below the threshold,4.77,below the threshold,4.25,below the threshold,below the threshold,below the threshold,below the threshold,4.51,3.98,below the threshold,below the threshold,below the threshold,3.48,"pKd (NHERF3_1, Q5T2W1): 3.75; pKd (FRMPD3, Q5JV73): below the threshold; pKd (PARD3_3, Q8TEW0): 4.62; pKd (GRIP2_3, Q9C0E4): below the threshold; pKd (FRMPD2_3, Q68DX3): below the threshold; pKd (MAGI1_1, Q96QZ7): below the threshold; pKd (TIAM2, Q8IVF5): 4.21"
"EPAKETTTNV [SLC2A3, P11169]",below the threshold,below the threshold,below the threshold,below the threshold,below the threshold,3.64,below the threshold,below the threshold,below the threshold,below the threshold,below the threshold,below the threshold,below the threshold,below the threshold,below the threshold,3.69,4.12,below the threshold,4.03,3.61,"pKd (NHERF3_1, Q5T2W1): 3.79; pKd (FRMPD3, Q5JV73): below the threshold; pKd (PARD3_3, Q8TEW0): below the threshold; pKd (GRIP2_3, Q9C0E4): below the threshold; pKd (FRMPD2_3, Q68DX3): below the threshold; pKd (MAGI1_1, Q96QZ7): below the threshold; pKd (TIAM2, Q8IVF5): below the threshold"
"PGKKPEDSRV [SLCO2B1, O94956]",below the threshold,below the threshold,3.5,below the threshold,below the threshold,3.52,below the threshold,below the threshold,below the threshold,below the threshold,below the threshold,below the threshold,below the threshold,below the threshold,below the threshold,3.47,3.83,below the threshold,3.83,3.67,"pKd (NHERF3_1, Q5T2W1): 3.66; pKd (FRMPD3, Q5JV73): below the threshold; pKd (PARD3_3, Q8TEW0): below the threshold; pKd (GRIP2_3, Q9C0E4): below the threshold; pKd (FRMPD2_3, Q68DX3): below the threshold; pKd (MAGI1_1, Q96QZ7): below the threshold; pKd (TIAM2, Q8IVF5): below the threshold"
